Source: PMC11085213, “Plastid Molecular Chaperone HSP90C Interacts with the SecA1 Subunit of Sec Translocase for Thylakoid Protein Transport” (Plants, 2024)

B1: HSP90C (Arabidopsis thaliana) (protein)
chain: CDAAVAEKETTEEGSGEKFEYQAEVSRLLDLIVHSLYSHKEVFLRELVSNASDALDKLRFLSVTEPSLLGDGGDLEIRIKPDPDNGTITITDTGIGMTKEELIDCLGTIAQSGTSKFLKALKENKDLGADNGLIGQFGVGFYSAFLVAEKVVVSTKSPKSDKQYVWESVADSSSYLIREETDPDNILRRGTQITLYLREDDKYEFAESTRIKNLVKNYSQFVGFPIYTWQEKSRTIEVEEDEPVKEGEEGEPKKKKTTKTEKYWDWELANETKPLWMRNSKEVEKGEYNEFYKKAFNEFLDPLAHTHFTTEGEVEFRSILYIPGMGPLNNEDVTNPKTKNIRLYVKRVFISDDFDGELFPRYLSFVKGVVDSDDLPLNVSREILQESRIVRIMRKRLIRKTFDMIQEISESENKEDYKKFWENFGRFLKLGCIEDTGNHKRITPLLRFFSSKNEEELTSLDDYIENMGENQKAIYYLATDSLKSAKSAPFLEKLIQKDIEVLYLVEPIDEVAIQNLQTYKEKKFVDISKEDLELGDEDEVKDREAKQEFNLLCDWIKQQLGDKVAKVQVSNRLSSSPCVLVSGKFGWSANMERLMKAQALGDTSSLEFMRGRRILEINPDHPIIKDLNAACKNAPESTEATRVVDLLYDTAIISSGFTPDSPAELGNKIYEMMAMAVGGRWGRVEEEEESSTVNEGDDKSGETEVVEPSEVRAESDPWQD
notes: His6-tagged HSP90C (pProEX HTb), E. coli BL21(DE3)-pRIL, Ni-NTA and Superdex 200

Tests used:
[1] = target: His6-tagged mSecA1 (Arabidopsis) (UniProt Q9SYI0)
His6-tagged mSecA1 (Arabidopsis), sequence (Q9SYI0 73-1022): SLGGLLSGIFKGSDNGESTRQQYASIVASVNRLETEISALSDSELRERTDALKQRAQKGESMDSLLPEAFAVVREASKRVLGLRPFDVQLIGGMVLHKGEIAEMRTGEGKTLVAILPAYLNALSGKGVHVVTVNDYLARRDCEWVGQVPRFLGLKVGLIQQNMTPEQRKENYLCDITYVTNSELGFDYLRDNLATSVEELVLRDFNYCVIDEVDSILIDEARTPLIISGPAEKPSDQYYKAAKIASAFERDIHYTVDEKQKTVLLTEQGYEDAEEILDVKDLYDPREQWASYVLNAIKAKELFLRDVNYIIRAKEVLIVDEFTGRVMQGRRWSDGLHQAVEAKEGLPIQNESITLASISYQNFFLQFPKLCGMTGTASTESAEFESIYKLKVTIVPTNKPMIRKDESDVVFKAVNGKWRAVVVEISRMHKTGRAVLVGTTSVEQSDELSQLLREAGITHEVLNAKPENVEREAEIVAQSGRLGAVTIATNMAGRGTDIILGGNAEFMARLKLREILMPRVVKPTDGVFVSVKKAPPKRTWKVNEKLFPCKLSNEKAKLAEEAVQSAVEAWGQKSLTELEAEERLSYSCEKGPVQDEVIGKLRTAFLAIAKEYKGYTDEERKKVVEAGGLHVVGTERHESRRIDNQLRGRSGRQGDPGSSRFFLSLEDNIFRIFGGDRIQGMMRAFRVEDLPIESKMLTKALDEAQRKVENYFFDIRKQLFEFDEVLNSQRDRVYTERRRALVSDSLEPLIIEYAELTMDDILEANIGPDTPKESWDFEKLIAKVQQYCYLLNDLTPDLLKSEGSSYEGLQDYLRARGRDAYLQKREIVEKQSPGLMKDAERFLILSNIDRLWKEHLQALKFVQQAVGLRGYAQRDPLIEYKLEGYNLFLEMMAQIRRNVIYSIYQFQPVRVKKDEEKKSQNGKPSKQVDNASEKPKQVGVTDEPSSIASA

[2] = substrate: Nc1ncnc2c1ncn2[C@@H]1O[C@H](COP(=O)(O)OP(=O)(O)OP(=O)(O)O)[C@@H](O)[C@H]1O; assay: ATPase, NADH-coupled (pyruvate kinase / lactate dehydrogenase); radicicol-sensitive activity; format: biochemical, Arabidopsis thaliana; conditions: pH 7.5, 5 mM MgCl2, 500 mM KCl, HSP90C alone, called ATP binding affinity

| Molecule | combined ATP turnover rate (kcat) of the equimolar mixture SecA1 + HSP90C (1.41 μM each), NADH-coupled assay at 5 mM ATP; sum of the two proteins' own average rates 2.93 min^−1 [1] [s⁻¹] | rise of the ATP turnover rate of SecA1 + HSP90C + PsbO1 (equimolar) relative to the SecA1 + HSP90C mixture, NADH-coupled assay [1] [%] | Km [2] [mM] |
| --- | --- | --- | --- |
| His6-tagged HSP90C (from UniProt Q9SIF2 61-780) (natural protein) | 0.0581 | 16 |  |
| B1 |  |  | 4.01 |
